The record followed here is US20090305339A1, “Polypeptides With Laccase Activity” (VIALACTIA BIOSCIENCES (NZ) LIMITED, priority 2006, published 2009).

Data set [1] in a line: Laccase activity, veratryl alcohol as substrate. The conditions noted are these: data not shown. The class given is biochemical. As to the method: (§1) Laccase activity was determined spectrophotometrically in a thermostated spectrophotometer (Perkin-Elmer) at 40° C. in 100 mM sodium citrate buffer, pH 4.5 (1 ml). The standard assay was performed at 530 nm, using SGZ as the oxidation substrate (ε530=64,000 M^−1cm^−1). The reaction was started by adding SGZ, from a stock solution in methanol, to a final concentration of 20 μM. […] Oxidation of phenol red (75 μM) was determined by the decrease in absorbance at 432 nm. The activity:pH and activity:temperature relationships were determined by incubating the enzyme:substrate mixtures at different pH values and constant temperature (40° C.), and at different temperatures (15-80° C.) and constant pH (4.5), respectively. Catalytic constants were derived by fitting the experimental data onto the Michaelis-Menten model. Control measurements without enzyme were carried out to correct for possible chemical oxidation of the substrates.

Data set [2] is described as follows: pH- and temperature-dependent activity and inactivation profiles. The class given is biochemical. As to conditions: sodium citrate pH 4.5, 1 mM SGZ or DMP. As to the method: FIG. 2A represents the effect of various pH values on the activity of recombinant purified RL5 laccase. The activity was measured at 40° C. using 1 mM SGZ (syringaldazine) or DMP as substrate. The buffers (100 mM) used were: citrate (pH 3.0-5.5), MES (pH 5.5-7.0), HEPES (pH 7.0-8.0), Tris-HCl (pH 8.0-9.0) and glycine-NaOH (pH 9.0-12). The activity of RL5 for DMP reached an optimum at a broad pH ranging from 3.5-9.0, being optimal at 4.0-5.0; however, it maintained more than 70% activity at pH 3.5 and 9.0 (FIG. 2A).
FIG. 2B represents the pH inactivation of purified RL5 laccase in sodium citrate pH 4.5 (indicated with “∘”) or glycine-NaOH pH 9.0 (indicated with “[…]”) over a time period of 240 min. 100% activity in the purified protein sample equals 7.2 units/mg (measured at 40° C.).
FIG. 2C represents the effect of the temperature on the activity of recombinant purified RL5 laccase. The enzyme activity was assayed at each indicated temperature in sodium citrate pH 4.5 in the presence of 1 mM SGZ or DMP. Activity was monitored at 420 nm. Protein activity increased as the temperature was raised to a maximum at ˜60° C. Therefore, RL5 is stable at high temperatures.
FIG. 2D represents the thermal inactivation of purified RL5 laccase. Purified enzyme was incubated in vials at 60° C. ([…]) or 65° C. (∘). At the indicated times, samples were withdrawn and tested for laccase activity at 40° C. by using SGZ or DMP as a substrate. 100% activity in the purified protein sample equals 17.2 units/mg.
Corresponding experiments were performed with BT4389 and YfiH under conditions as described above for FIGS. 2A to 2D (data not shown). The activity of these enzymes reached an optimum at a temperature of 52° C. (for BT4389) and 44° C. (for YfiH) and the thermal activity maintained for more than 80% at 55° C. (for BT4389) and at 50° C. (for YfiH). The activity of both enzymes reached an optimum at a pH range from 4.5 to 6.0 (for BT4389) and from 5.5 to 8.4 (for YfiH), although 80% activity maintained at pH 4.0 to 7.5 (for BT4389) and 5.0 to 9.0 (for YfiH).
as §1

Data set [3] can be described thus: Oxidative reactions of various compounds (substrate preference, overall kinetics, pH range). The class given is biochemical. As to conditions: order of oxidized substrates. Here is the method: as §1
Data set [4] is described as follows: Laccase activity, spectrophotometric, DMP as substrate. As to conditions: data not shown. The class given is biochemical. As to the method:
as §1

The nature of data set [5]: Laccase activity, spectrophotometric, SGZ as substrate. As to conditions: data not shown. The class given is biochemical. As to the method:
as §1

Data set [6] in a line: Laccase activity, guaiacol as substrate. As to conditions: data not shown. It counts as biochemical. As to the method:
as §1

Substrate in data set [7]: COc1cccc(OC)c1O
Description: Steady-state kinetics of RL5 laccase, spectrophotometric oxidation of laccase substrates. It counts as biochemical, bovine rumen metagenome. The conditions noted are these: other: 40° C., pH 4.5, 14 nM protein, substrate 0 to 1 mM.
Description: (§2) Protein concentrations were determined according to Bradford (31), with BSA as standard.
(§3) Laccase activity was determined spectrophotometrically in a thermostated spectrophotometer (Perkin-Elmer) at 40° C. in 100 mM sodium citrate buffer, pH 4.5 (1 ml). The standard assay was performed at 530 nm, using SGZ as the oxidation substrate (ε530=64,000 M^−1cm^−1). The reaction was started by adding SGZ, from a stock solution in methanol, to a final concentration of 20 μM. […] Catalytic constants were derived by fitting the experimental data onto the Michaelis-Menten model. Control measurements without enzyme were carried out to correct for possible chemical oxidation of the substrates.

Substrate in data set [8]: COc1cc(/C=N/N=C/c2cc(OC)c(O)c(OC)c2)cc(OC)c1O
The data set is described as above. As to conditions: other: 40° C., pH 4.5, 14 nM protein, substrate 0 to 1 mM. The class given is biochemical, bovine rumen metagenome.
Description: as §2, §3

Substrate in data set [9]: CCn1c(=NN=c2sc3cc(S(=O)(=O)O)ccc3n2CC)sc2cc(S(=O)(=O)O)ccc21
Description: purified protein, by the assay type. The conditions noted are these: other: 40° C., pH 4.5, 14 nM protein, substrate 0 to 1 mM.

B1: YfiH: DUF152 domain containing hypothetical protein from Escherichia coli, Gene Bank AAG57706, identified as laccase (FIG. 13) (protein, listed as Escherichia coli)
chain: MSKLIVPQWPLPKGVAACSSTRIGGVSLPPYDSLNLGAHCGDNPDHVEENRKRLFAAGNLPSKPVWLEQVHGKDVLNLTGEPYASKRADASYSNTPGRVCAVMTADCLPVLFCNRAGTEVAAAHAGWRGLCAGVLEETVSCFADNPENILAWLGPAIGPRAFEVGAEVREAFMAVDAEASTAFIQHGDKYLADIYQLARQRLANVGVEQIFGGDRCTYTENETFFSYRRDKTTGRMASFIWLI
modifications: Description of sequence amino acid sequence of protein YfiH with unknown function DUF152 from Escherichia coli (Gene Bank accession number AAG57706) (see Fig. 13)
B1: the oxidation activity in data set [1] was 2.1 units/g protein; in data set [4], 4 units/g protein; in [5], 5.6 units/g protein; in data set [6] it was 0.5 units/g protein. Besides, the “temperature optimum of activity” value in [2] came out at 44 °C. The substrate preference entry in data set [3] is “SGZ>DMP>>veratryl alcohol>>guaiacol”.

B2: RL5 laccase (bovine rumen metagenome), wild type, FIG. 11 (unidentified prokaryotic organism) (protein)
chain: MIELEKLDFAKSVEGVEAFSTTRGQVDGRNAYSGVNLCDYVGDDALRVLDARLTLAMQLGVDLDDLVMPRQTHSCRVAVIDERFRALDIDEQEAALEGVDALVTRLQGIVIGVNTADCVPIVLVDSQAGIVAVSHAGWRGTVGRIAKAVVEEMCRQGATVDRIQAAMGPSICQDCFEVGDEVVEAFKKAHFNLNDIVVRNPATGKAHIDLRAANRAVLVAAGVPAANIVESQHCSRCEHTSFFSARRLGINSGRTFTGIYRK
Consider B2, for which the Km – broadly, the substrate concentration at which the rate is half of its maximum – is 0.45 µM in [7], 0.43 µM in data set [8] and 26.2 µM in data set [9]. Moreover, the results for the kcat in [7], in data set [8] and in data set [9] were 1174 s⁻¹, 663.45 s⁻¹ and 18.05 s⁻¹, respectively.
